In this experiment the target is H7N9 A/Shanghai/2/2013 hemagglutinin trimer, wild type (influenza A virus A/Shanghai/02/2013 (H7N9)) (UniProt R4NN21). The experiment in a line: cryo-EM structure.

On to “H7N9 A/Shanghai/2/2013 hemagglutinin trimer, wild type (from UniProt R4NN21) (natural protein)”, for which the stoichiometry N (usually the number of molecules, sites or subunits per partner or assembly) turned out to be 3.

(Values after PMC9271601.)
